Here are results for one molecule from US20220002363A1, “COMPOSITIONS AND METHODS FOR TREATING PULMONARY DISEASE” (United States Government As Represented By The Department …, priority 2020, published 2022).

One assay relates to Jurkat cells. Put plainly: Caspase 3/7 activity in Jurkat cells (bioactivity of sFasL proteins). In kind it is cell-based, human. The procedure:
Jurkat cells were incubated for 5 hours with wild type (WT) sFasL or a sFasL mutant (mut sFasL) in which 8 charged amino acids were changed to alanine. Caspase 3/7 activity was measured after incubation with the caspase 3/7 substrate at room temperature for 30 minutes. Data is shown as arbitrary luminescence units. […] Each dot represents individual data. Data analyzed by 2-way ANOVA with Sidak post-hoc analysis. ** p<0.01, *** p<0.001 compared to the respective concentration of mut-sFasL.
Methods. Cells and cell culture. To test Fas responses in vitro, the highly-Fas sensitive cell line, Jurak, was used. Jurak cells are human T lymphocyte cells first isolated from the peripheral blood of a child with acute cell leukemia (Gillis S and Watson J. J Exp Med. 1980; 152(6):1709-19). Jurak cells are exquisitely sensitive to Fas ligation and are commonly used as a model cell in studies involving the Fas/FasL system; here they are used as such, rather than as a model of T-cell responses. Jurak cells (human leukemic T lymphocytes) were purchased from ATCC (Clone TIB-152) and grown at 37° C. and 5% CO2 in RPMI-1640 medium supplemented with 10% heat-inactivated fetal bovine serum. Cells were authenticated using short tandem repeat analysis. Mycoplasma status was weakly positive by PCR (Venor GeM Mycoplasma Detection Kit, Sigma-Aldrich, Cat #MP0025). The Jurak data was confirmed in primary human lung epithelial cells and the murine alveolar epithelial cell line LA4, which are described herein.
Measurements of apoptotic cascade activation. Apoptotic cascade activation was assessed by determining caspase 3/7 activity and Annexin V externalization. Caspase-3/7 activity was measured using a commercial substrate (Caspase-Glo 3/7 Assay, Promega, Madison, Wis., Cat #G8090) following manufacturer's instructions. Annexin V was measured with a luminescent commercial assay that allows for measurement of annexin V externalization in adherent cells (RealTime-Glo Annexin V assay, Promega, Madison, Wis., Cat #JA1011). Luminescence was measured with a Synergy H4 Microplate Reader (BioTek, Winooski, Vt.).
Results. Mutations of the charged amino acids in the stalk region of sFasL influence its biological activity in vitro. To test whether the structure of the stalk region of sFasL influences its biological activity, a mutant sFasL molecule (mut-sFasL) was cloned in which 8 charged amino acids in the 26 amino acid stalk region were changed to the non-charged amino acid alanine (FIG. 7). DNA sequencing data for the FasL constructs was also carried out: DNA sequence of wild type sFasL construct and eight different clones. The mutant sFasL clone used in the study is clone 1. […]

Assay [1] addresses T1, recombinant human soluble Fas (Homo sapiens, UniProt P25445).
T1 construct: recombinant human soluble Fas receptors (PeproTech, Rocky Hill, N.J.); purchased PeproTech
T1 sequence (P25445 26-173 limits assumed): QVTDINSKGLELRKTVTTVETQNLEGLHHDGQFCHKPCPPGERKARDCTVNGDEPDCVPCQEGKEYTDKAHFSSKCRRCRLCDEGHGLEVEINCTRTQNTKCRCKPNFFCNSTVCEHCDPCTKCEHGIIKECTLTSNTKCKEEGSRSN
The assay can be described thus: Fas-FasL binding assay on wells coated with recombinant human soluble Fas. The note with it: recombinant human Fas 5 μg/mL, detection with polyclonal anti-FasL antibodies. On the procedure:
The mixtures were incubated for 2 hours in 96-well plates pre-coated with recombinant hsFas (250 ng/ml). After washing unbound material, biotin was detected using HRP conjugated Streptavidin. […] The sFasL bound to Fas was detected using polyclonal anti-human FasL antibodies. […] Different molar ratios of the Fas-activating antibody CH-11 and mut-sFasL were added, and caspase 3/7 activity measured after 5 hours. […] Data represent the results from three separate experiments, each done in duplicate, and were analyzed by 2-way ANOVA with Sidak's post hoc analysis. […] Each dot represents individual data; lines represent means±SD. *=P<0.05; **=P<0.01, ***P<0.001.
Antibodies and Reagents. […] FLAG tagged mut-sFasL was detected using HRP anti-FLAG monoclonal antibody (Sigma-Aldrich, Cat #A85920). […]
WT-sFasL inhibition occurs prior to receptor binding. […] Recombinant human Fas at 250 ng/mL were coated and the binding of a fixed concentration of biotinylated WT-sFasL (70 ng/mL) were measured in the presence of serial 3-fold dilutions of either WT-sFasL or mut-sFasL. […] Serial dilutions of either WT-sFasL or mut-sFasL were incubated in wells coated with recombinant human Fas, 5 μg/mL, and after washing, detected sFasL bound to Fas using polyclonal anti-FasL antibodies. […]

B1: mut-sFasL: mutant sFasL molecule in which 8 charged amino acids in the 26 amino acid stalk region were changed to alanine (protein)
chain: QLFALQAALAALAASTSQMATASSLAKQIGHPSPPPEKKELRKVAHLTGKSNSRSMPLEWEDTYGIVLLSGVKYKKGGLVINETGLYFVYSKVYFRGQSCNNLPLSHKVYMRNSKYPQDLVMMEGKMMSYCTTGQMWARSSYLGAVFNLTSADHLYVNVSELSLVNFEESQTFFGLYKL
On to B1, for which, in the assay with Jurkat cells (810 ng/mL), the “bioactivity (caspase 3/7) at the highest concentration tested” value was “retained some bioactivity”. The “caspase 3/7 activity” value in the assay on Jurkat cells (5 hours incubation, compared to WT-sFasL) was “significantly reduced caspase 3/7 activity compared to WT-sFasL”. In addition, the “activity relative to the wild-type sFasL” value in the assay on Jurkat cells (caspase 3/7) was “approximately two orders of magnitude less than the wild-type sFasL”. Moreover, in the assay on Jurkat cells (highest dose of 2430 ng/mL (corresponds to 1:81 WT:mut molar ratio)), the “intrinsic caspase-3/7 activation” value is “leads to intrinsic caspase-3/7 activation”. The “binding curve to immobilized Fas relative to WT-sFasL” value is on record as “shifted to the right, indicating decreased binding ability for Fas” in assay [1] and “shifted to the left” in assay [1] (listed as mut sFasL).
